Experimental data as given in publication PMC3058911.

How the values were obtained:
[1] = molecular target: CdiI536-T18 (bacterial two-hybrid fusion) (E. coli UPEC 536); test: two-hybrid
[2] = molecular target: CdiI3937-2-T18 (bacterial two-hybrid fusion) (Dickeya dadantii 3937) (UniProt E0SDG7); test: two-hybrid
Chain of UniProt E0SDG7 (E0SDG7 whole entry, the tested form may be a part): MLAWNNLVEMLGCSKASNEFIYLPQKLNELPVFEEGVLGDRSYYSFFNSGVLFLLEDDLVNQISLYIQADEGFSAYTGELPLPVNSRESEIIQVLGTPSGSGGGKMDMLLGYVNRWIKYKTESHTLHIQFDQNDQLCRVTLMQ

Substance	β-galactosidase activity [1] [units]	β-galactosidase activity [2] [units]
T25-CdiA-CT536 (bacterial two-hybrid fusion) (domain or fragment)	> 300	–
T25-CdiA-CT3937-2 (bacterial two-hybrid fusion) (from UniProt E0SDG8 1-3326) (domain or fragment)	–	> 300
